Reference: patent US20230357395A1 (published 2023)
Residue numbers refer to the chain shown, from its start. In names and notes the source's numbering stands.

T1: TRBC1 on TRBC1+ Jurkat cells (human, UniProt P01850 1-176)
T1 chain: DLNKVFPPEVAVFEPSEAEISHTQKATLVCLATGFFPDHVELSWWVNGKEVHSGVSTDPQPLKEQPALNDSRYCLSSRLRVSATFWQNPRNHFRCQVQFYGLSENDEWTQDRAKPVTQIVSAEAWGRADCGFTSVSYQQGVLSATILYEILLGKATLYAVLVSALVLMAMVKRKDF

T2: NKp30 on KHYG-1 NK cells (human, UniProt O14931 19-201)
T2 chain: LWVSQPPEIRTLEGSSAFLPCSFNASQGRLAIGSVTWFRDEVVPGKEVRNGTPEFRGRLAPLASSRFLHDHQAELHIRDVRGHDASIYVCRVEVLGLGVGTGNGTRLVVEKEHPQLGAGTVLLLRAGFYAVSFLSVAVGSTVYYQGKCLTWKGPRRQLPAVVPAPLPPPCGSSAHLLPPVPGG

T3: human TRBC1 (hTRBC1), construct BIM0444 (human, UniProt P01850 1-129)
T3 chain: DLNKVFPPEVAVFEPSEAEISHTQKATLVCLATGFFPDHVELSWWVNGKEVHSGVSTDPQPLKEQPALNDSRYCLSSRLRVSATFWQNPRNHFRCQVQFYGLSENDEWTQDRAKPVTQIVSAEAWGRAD

B1: BJM1042 (anti-TRBC1/NKp30 bispecific antibody, N297A) (bispecific antibody)
heavy: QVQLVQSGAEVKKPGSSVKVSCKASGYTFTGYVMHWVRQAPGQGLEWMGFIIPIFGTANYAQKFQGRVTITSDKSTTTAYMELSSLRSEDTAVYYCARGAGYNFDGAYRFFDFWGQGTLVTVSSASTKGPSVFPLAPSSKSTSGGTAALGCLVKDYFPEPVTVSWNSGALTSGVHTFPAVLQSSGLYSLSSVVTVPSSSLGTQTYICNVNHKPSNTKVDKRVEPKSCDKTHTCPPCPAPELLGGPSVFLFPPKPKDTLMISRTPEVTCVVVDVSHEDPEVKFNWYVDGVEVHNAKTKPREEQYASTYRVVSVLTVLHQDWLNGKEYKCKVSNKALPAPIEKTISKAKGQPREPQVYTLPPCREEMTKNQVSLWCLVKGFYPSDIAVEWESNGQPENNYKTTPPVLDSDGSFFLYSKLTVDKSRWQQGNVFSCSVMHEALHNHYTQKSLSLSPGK
light: DVVMTQSPLSLPVTLGQPASISCRSSQRLVHSNGNTYLHWYQQRPGQSPRLLIYRVSNRFPGVPDRFSGSGSGTDFTLKISRVEAEDVGVYFCSQSTHVPYTFGGGTKVEIKRTVAAPSVFIFPPSDEQLKSGTASVVCLLNNFYPREAKVQWKVDNALQSGNSQESVTEQDSKDSTYSLSSTLTLSKADYEKHKVYACEVTHQGLSSPVTKSFNRGEC
scFv: EIQLLESGGGLVQPGGSLRLSCAVSGFSITTTGYHWNWVRQAPGKGLEWVGYIYSSGSTSYNPSLKSRFTISRDTSKNTFYLQMNSLRAEDTAVYYCARGDWHYFDYWGQGTMVTVSSGGGGSGGGGSGGGGSGGGGSDSVTTQSPLSLPVTLGQPASISCSGEKLSDKYVHWYQQRPGQSPRMLIYENDRRPSGVPDRFSGSNSGNDATLKISRVEAEDVGVYFCQFWDSTNSAVFGGGTKVEIKDKTHTCPPCPAPELLGGPSVFLFPPKPKDTLMISRTPEVTCVVVDVSHEDPEVKFNWYVDGVEVHNAKTKPREEQYASTYRVVSVLTVLHQDWLNGKEYKCKVSNKALPAPIEKTISKAKGQPREPQVCTLPPSREEMTKNQVSLSCAVKGFYPSDIAVEWESNGQPENNYKTTPPVLDSDGSFFLVSKLTVDKSRWQQGNVFSCSVMHEALHNHYTQKSLSLSPGK
B2: BJM1048 (antibody)
chain 1: not shown
chain 2: B1 light
chain 3: EIQLLESGGGLVQPGGSLRLSCAVSGFSITTTGYHWNWVRQAPGKGLEWVGYIYSSGSTSYNPSLKSRFTISRDTSKNTFYLQMNSLRAEDTAVYYCARGDWHYFDYWGQGTMVTVSSGGGGSGGGGSGGGGSGGGGSSSETTQPPSVSVSPGQTASITCSGEKLSDKYVHWYQQKPGQSPVMVIYENDRRPSGIPERFSGSNSGNTATLTISGTQAMDEADYFCQFWDSTNSAVFGGGTQLTVLDKTHTCPPCPAPELLGGPSVFLFPPKPKDTLMISRTPEVTCVVVDVSHEDPEVKFNWYVDGVEVHNAKTKPREEQYASTYRVVSVLTVLHQDWLNGKEYKCKVSNKALPAPIEKTISKAKGQPREPQVCTLPPSREEMTKNQVSLSCAVKGFYPSDIAVEWESNGQPENNYKTTPPVLDSDGSFFLVSKLTVDKSRWQQGNVFSCSVMHEALHNHYTQKSLSLSPGK
B3: BJM1038 (antibody)
chain 1: not shown
chain 2: B1 light
chain 3: B2 chain 3
B4: BJM1052 (anti-TRBC1/NKp30 bispecific antibody, N297A) (bispecific antibody)
heavy: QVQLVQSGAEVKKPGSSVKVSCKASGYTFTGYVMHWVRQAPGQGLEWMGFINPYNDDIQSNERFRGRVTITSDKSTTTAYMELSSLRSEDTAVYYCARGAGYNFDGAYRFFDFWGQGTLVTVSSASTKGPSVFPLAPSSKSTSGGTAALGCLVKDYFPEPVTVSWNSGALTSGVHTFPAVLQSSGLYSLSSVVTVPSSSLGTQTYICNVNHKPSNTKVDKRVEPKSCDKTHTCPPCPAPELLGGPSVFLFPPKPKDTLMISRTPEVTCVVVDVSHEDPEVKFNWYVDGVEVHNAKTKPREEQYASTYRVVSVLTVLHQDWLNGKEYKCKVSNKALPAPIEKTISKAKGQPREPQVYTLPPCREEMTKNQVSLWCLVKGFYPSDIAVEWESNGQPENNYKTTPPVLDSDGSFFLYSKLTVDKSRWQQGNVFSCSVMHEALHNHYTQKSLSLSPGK
light: B1 light
scFv: B1 scFv
B5: BJM0889 (single arm anti-TRBC1 antibody, N297A) (antibody, V domains shown)
VH: QVQLVQSGAEVKKPGSSVKVSCKASGYTFTGYVMHWVRQAPGQGLEWMGFINPYNDDIQSNERFRGRVTITSDKSTTTAYMELSSLRSEDTAVYYCARGAGYNFDGAYRFFDFWGQGTLVTVSS
VL: DVVMTQSPLSLPVTLGQPASISCRSSQRLVHSNGNTYLHWYQQRPGQSPRLLIYRVSNRFPGVPDRFSGSGSGTDFTLKISRVEAEDVGVYFCSQSTHVPYTFGGGTKVEIK
B6: BJM1079 (BJM0411 Parental) (antibody, V domains shown)
VH: EIQLLESGGGLVQPGGSLRLSCAVSGFSITTTGYHWNWVRQAPGKGLEWVGYIYSSGSTSYNPSLKSRFTISRDTSKNTFYLQMNSLRAEDTAVYYCARGDWHYFDYWGQGTMVTVSS
VL: DSVTTQSPLSLPVTLGQPASISCSGEKLSDKYVHWYQQRPGQSPRMLIYENDRRPSGVPDRFSGSNSGNDATLKISRVEAEDVGVYFCQFWDSTNSAVFGGGTKVEIK
B7: BJM1078 (BJM0407 Parental) (antibody, V domains shown)
VH: B6 VH
VL: SSETTQPPSVSVSPGQTASITCSGEKLSDKYVHWYQQKPGQSPVMVIYENDRRPSGIPERFSGSNSGNTATLTISGTQAMDEADYFCQFWDSTNSAVFGGGTQLTVL
B8: humanized JOVI.1 Fab BIM0460 (Fab, V domains shown)
VH: B5 VH
VL: B5 VL
B9: JOVI.1 Fab BIM0446 (Fab, V domains shown)
VH: EVRLQQSGPDLIKPGASVKMSCKASGYTFTGYVMHWVKQRPGQGLEWIGFINPYNDDIQSNERFRGKATLTSDKSSTTAYMELSSLTSEDSAVYYCARGAGYNFDGAYRFFDFWGQGTTLTVSS
VL: B5 VL with T14S, Q17D, P18Q, Q42L, R44K, R50K, V88L, V90I, V109L

Molecular target: T1, TRBC1 on TRBC1+ Jurkat cells
Test: FACS cell binding

EC50 [nM]	Binder
61	B1
8.29	B2
60.5	B3
4.55	B4
5.26	B5

Molecular target: T2, NKp30 on KHYG-1 NK cells
Test: FACS cell binding

EC50 [nM]	Binder
5.36	B6
5.2	B7
9.48	B1
7.66	B2
7.99	B3
6.61	B4

Molecular target: T3, human TRBC1 (hTRBC1), construct BIM0444
Test: Octet BLI

Kd [nM]	Binder
9	B8
4	B9
